US20250332238

Columns and labels:
[1] = target: T1, TRMT112 (KMT9beta; tRNA methyltransferase subunit 11-2, isoform 2, Homo sapiens)
T1 chain: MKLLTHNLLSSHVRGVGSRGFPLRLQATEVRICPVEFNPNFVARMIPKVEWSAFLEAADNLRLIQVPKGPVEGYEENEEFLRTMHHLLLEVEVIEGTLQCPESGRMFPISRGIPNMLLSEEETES

[2] = target: histone H4, P62805
[3] = target: ETF1, P62495
[4] = target: mutant histone H4 where K12 was changed to alanine (H4K12A), P62805

B1: C21orf127 (KMT9alpha; N-6 adenine-specific DNA methyltransferase 1, isoform 1, Homo sapiens) (protein)
chain: MAGENFATPFHGHVGRGAFSDVYEPAEDTFLLLDALEAAAAELAGVEICLEVGSGSGVVSAFLASMIGPQALYMCTDINPEAAACTLETARCNKVHIQPVITDLVKGLLPRLTEKVDLLVFNPPYVVTPPQEVGSHGIEAAWAGGRNGREVMDRFFPLVPDLLSPRGLFYLVTIKENNPEEILKIMKTKGLQGTTALSRQAGQETLSVLKFTKS
HMT activity (methylation assay) [1]: only the C21orf127/TRMT112 heterodimer displayed HMT activity

B2: C21orf127(Y125A)/TRMT112 complex (protein)
chain 1: MAGENFATPFHGHVGRGAFSDVYEPAEDTFLLLDALEAAAAELAGVEICLEVGSGSGVVSAFLASMIGPQALYMCTDINPEAAACTLETARCNKVHIQPVITDLVKGLLPRLTEKVDLLVFNPPAVVTPPQEVGSHGIEAAWAGGRNGREVMDRFFPLVPDLLSPRGLFYLVTIKENNPEEILKIMKTKGLQGTTALSRQAGQETLSVLKFTKS
chain 2: MKLLTHNLLSSHVRGVGSRGFPLRLQATEVRICPVEFNPNFVARMIPKVEWSAFLEAADNLRLIQVPKGPVEGYEENEEFLRTMHHLLLEVEVIEGTLQCPESGRMFPISRGIPNMLLSEEETES
methylation of H4K12 (methylation assay) [2]: resulted in methylation of H4K12, but not ETF1 by the mutant C21orf127(Y125A)/TRMT112 complex | methylation of ETF1 (methylation assay) [3]: resulted in methylation of H4K12, but not ETF1 by the mutant C21orf127(Y125A)/TRMT112 complex

B3: C21orf127/TRMT112 heterodimer (KMT9) (protein)
chain 1: MAGENFATPFHGHVGRGAFSDVYEPAEDTFLLLDALEAAAAELAGVEICLEVGSGSGVVSAFLASMIGPQALYMCTDINPEAAACTLETARCNKVHIQPVITDLVKGLLPRLTEKVDLLVFNPPYVVTPPQEVGSHGIEAAWAGGRNGREVMDRFFPLVPDLLSPRGLFYLVTIKENNPEEILKIMKTKGLQGTTALSRQAGQETLSVLKFTKS
chain 2: MKLLTHNLLSSHVRGVGSRGFPLRLQATEVRICPVEFNPNFVARMIPKVEWSAFLEAADNLRLIQVPKGPVEGYEENEEFLRTMHHLLLEVEVIEGTLQCPESGRMFPISRGIPNMLLSEEETES
in vitro methylation assay with SAM [3H] (FIG. 1A, FIG. 1B) [2]: wild-type H4 protein, but not mutant H4 where K12 was changed to an alanine (A) residue (H4K12A), was methylated | in vitro methylation assay with SAM [3H] (FIG. 1B) [4]: wild-type H4 protein, but not mutant H4 where K12 was changed to an alanine (A) residue (H4K12A), was methylated
